Test results taken from patent publication US20110009597A1, “RECOMBINANT GANODERMA LUCIDIUM IMMUNOMODULATORY PROTEIN (rLZ-8) AND USES THEREOF” (priority 2008, published 2011).

Legend:
[1] = test system: Human Promyelocytic Leukemia NB4 Cells; test: Killing effect of rLZ-8 on NB4 cells (MTT, OD570nm); format: cell-based
Description: After filtration and degerming, we prepared 8 concentrations using IMDM culture medium which are respectively 0.78 μg·ml^−1, 1.56 μg·ml^−1, 3.125 μg·ml^−1, 6.25 μg·ml^−1, 12.5 μg·ml^−1, 25 μg·ml^−1, 50 μg·ml^−1, 100 μg·ml^−1.
On 96-orifice culture medium plate, the pilot orifice plus NB4 tumor cells 0.1 ml and rLZ-8 0.1 ml, rLZ-8 concentrates from low to high; negative control group plus NB4 tumor cells and culture medium of 0.1 ml respectively; positive drug control group arsenic trioxide As2O3; make six-aperture multipunches for each group. Placing in 37° C., 5% CO2 incubator 48 h, adding MTT15 μl (5 mg ml^−1) prior to the termination of 4 h, after the termination of cell culture by adding 100 μl 0.1 mol L^−1 hydrochloric acid isopropyl alcohol, testing on the enzyme-linked immunosorbent OD570nm values.

K562 = test: PI single stained flow cytometry, apoptosis of K562; format: cell-based
Description: Fluorescence microscope, model Leica ASLMD, K562, NB4. rLZ-8 is classified into high, medium and low three-dose groups respectively, now we prepare them with IMDM culture medium containing 2% FCS into the preparation of 2.5 μg·ml^−1, 0.5 μg/ml, 0.1 μg·ml^−1. […] (PI) 50 μg·ml ^−1.
Establish K562 as the normal control group, rLZ-8 low-dose group (0.1 μg·ml^−1), rLZ-8 medium dose group (0.5 μg·ml^−1), rLZ-8 high-dose group, (2.5 μg·ml^−1); set NB4 as the normal control group, rLZ-8 low-dose group (0.1 μg·ml^−1), rLZ-8 medium dose group (0.5 μg·ml^−1), rLZ-8 high-dose group, (2.5 μg·ml^−1).
Mix K562 and NB4 cells into 24-orifice plate respectively, and supply rLZ-8 in different concentrates, 1 ml/orifice, set 3-orifice multipunches for each group. Put them in 37° C., 5% CO2 incubator for 24 h, collect the cells of each concentrate, PBS washes twice and regulates the cell density to 1×10^6/ml, 70% ice ethanol fixation, adjusts to −20° C. and stays overnight. Wash the cells with PBS twice after fixing the cells, add PI (end density 50 μg·ml^−1) for room temperature and lucifuged hatching 10 min, 1000 r·min^−1 centrifuge 5 min, clear supernatant with disposable 400μ. IPBS re-suspension precipitation. And test on computer in 1 h.

HL-60 = test: Annexin V-FITC flow cytometry, apoptosis of HL-60; format: cell-based; conditions: Annexin V/PI
Description: FACS Calibur flow cytometry, U.S. Becton-Dickinson.Coompany. NB4, HL-60. rLZ-8 is prepared with IMDM culture medium containing 2% FCS into the preparation of 0.1 μg·ml^−1, 0.5 μg·ml^−1, 2.5 μg·ml^−1, arsenic trioxide (As2O3) 0.5 μg·ml^−1 AnnexinV-FITC kit: combining buffer solution 4×; Propidium iodide solution (PI), 20 μg·ml−1, 0.2 ml; recombinant human Annexin V/FITC, 0.1 ml.
Establish NB4 normal control group, positive drug group (As2O3 0.5 μg·ml^−1), protein low-dose group (0.1 μg·ml^−1), medium-dose group (0.5 μg·ml^−1), high-dose group, (2.5 μg·ml^−1); establish HL-60 normal control group, protein low-dose group (0.1 μg·ml^−1), medium-dose group (0.5 μg·ml^−1), high-dose group, (2.5 μg·ml^−1).
Mix NB4 and HL-60 cell into 24-orifice plate respectively, 1 ml/hole supply rLZ-8 in different concentrates, set 3-orifice multipunches for each group. Put them in 37° C., 5% CO2 incubator for 24 h, collect the cells of each concentrate, washes the cells twice with pre-cooled PBS 4° C., with 250 μl binding buffer solution re-suspending cells and regulates the cell density to 1×10^6/ml, taking out 100 μl to 5 ml streaming tube, and add 5 μl Annexin V/FITC and 10 μl 20 μg·ml^−1 PI solution, after mixing put it in room temperature and lucifuged hatching 15 min, add 400 μl PBS by flow cytometry analysis.

S180 cells = test: Mouse transplanted S180 subcutaneous tumor inhibition; format: in vivo, Mice; conditions: 10 days
Description: Mice, 18-22 g, males and females were equally divided, provided by Jilin University Laboratory Animal Center; Mice Ehrlich ascites cells strain, provided by our laboratory S180; Cyclophosphamide (CTX), offered by Jiangsu Hengrui Medicine Co., Ltd., lot number: 06101921. S180 ascites tumors and solid tumors in experiment group were divided into normal control group, negative control group, positive control group, rLZ-8 low-dose treatment group (0.25 mg·kg^−1), rLZ-8 medium-dose treatment group (0.5 mg·kg^−1), rLZ-8 high-dose treatment group (1 mg·kg^−1). For each group 10 mice.
Select well-growing S180 cells, dilute appropriately with sterile saline into a tumor cell suspension, cell counts for 10^7·L^−1, under the right armpit of each mouse inoculated subcutaneously 0.2 ml (except for the normal control group). Treatment after 24 h of vaccination. Normal control group and negative control group were given saline 0.2 ml·each^−l·d^−1, intraperitoneal injection; positive control group were given cyclophosphamide 20 mg·kg^−1, intraperitoneal injection. rLZ-8 treatment groups were given doses of tail venous injection respectively, 0.2 ml·each^−1·d^−1, in 10 consecutive days. Draw blood from orbital venous plexus 10 days before and after medication respectively, sent to Jilin University No. 1 Hospital clinical laboratory to test and analyze the number of WBC. Kill all mice the next day of drug withdrawal at cervical dislocation, dissect anatomically and take out the tumors, weigh tumors, calculate the inhibition rate using the following equation:
Inhibition rate (%)=(average tumore weight of the control group−average tumore weight of the experiment group)/average tumor weight of the control group×100%

[2] = rLZ-8 0.25 mg·kg^−1 tail venous injection
[3] = rLZ-8 0.5 mg·kg^−1 tail venous injection
[4] = rLZ-8 1 mg·kg^−1 tail venous injection

B1: rLZ-8: Recombinant Ganoderma Lucidum Immune Regulatory Protein expressed in Pichia pastoris (protein, UniProt P14945 2-111, looked up)
Immunomodulatory protein Ling …: SDTALIFRLAWDVKKLSFDYTPNWGRGNPNNFIDTVTFPKVLTDKAYTYRVAVSGRNLGVKPSYAVESDGSQKVNFLEYNSGYGIADTNTIQVFVVDPDTNNDFIIAQWN
- lethal effect in vitro on NB4 tumor cells (in words) ([1]; 0.78-100 μg·ml^−1): strong lethal effect
- Growth inhibition rate (%) ([1]; rLZ-8 0.78 μg ml^−1, 48 h): 39%
- OD570 nm ([1]; rLZ-8 0.78 μg ml^−1, 48 h): 0.71 ± 0.03
- Growth inhibition rate (%) ([1]; rLZ-8 1.56 μg ml^−1, 48 h): 44%
- OD570 nm ([1]; rLZ-8 1.56 μg ml^−1, 48 h): 0.65 ± 0.05
- Growth inhibition rate (%) ([1]; rLZ-8 3.125 μg ml^−1, 48 h): 54%
- OD570 nm ([1]; rLZ-8 3.125 μg ml^−1, 48 h): 0.53 ± 0.04
- Growth inhibition rate (%) ([1]; rLZ-8 6.25 μg ml^−1, 48 h): 61%
- OD570 nm ([1]; rLZ-8 6.25 μg ml^−1, 48 h): 0.45 ± 0.02
- Growth inhibition rate (%) ([1]; rLZ-8 12.5 μg ml^−1, 48 h): 74%
- OD570 nm ([1]; rLZ-8 12.5 μg ml^−1, 48 h): 0.30 ± 0.04
- Growth inhibition rate (%) ([1]; rLZ-8 25 μg ml^−1, 48 h): 81%
- OD570 nm ([1]; rLZ-8 25 μg ml^−1, 48 h): 0.22 ± 0.01
- Growth inhibition rate (%) ([1]; rLZ-8 50 μg ml^−1, 48 h): 91%
- OD570 nm ([1]; rLZ-8 50 μg ml^−1, 48 h): 0.11 ± 0.01
- Growth inhibition rate (%) ([1]; rLZ-8 100 μg ml^−1, 48 h): 93%
- OD570 nm ([1]; rLZ-8 100 μg ml^−1, 48 h): 0.08 ± 0.01
- Apoptosis rate (K562; K562, rLZ-8 0.1 μg·ml^−1, 24 h): 16.43%
- Apoptosis rate (K562; K562, rLZ-8 0.5 μg·ml^−1, 24 h): 17.91%
- Apoptosis rate (K562; K562, rLZ-8 2.5 μg·ml^−1, 24 h): 21.57%
- Apoptosis rate (HL-60; HL-60, rLZ-8 0.1 μg·ml−1, 24 h): 30.5%
- Apoptosis rate (HL-60; HL-60, rLZ-8 0.5 μg·ml−1, 24 h): 40.7%
- Apoptosis rate (HL-60; HL-60, rLZ-8 2.5 μg·ml−1, 24 h): 47.7%
- Inhibition rate (%) (S180 cells; [2]): 16.8%
- Tumor weight (S180 cells; [2]): 0.84 ± 0.03 g
- Inhibition rate (%) (S180 cells; [3]): 25.7%
- Tumor weight (S180 cells; [3]): 0.75 ± 0.02 g
- Inhibition rate (%) (S180 cells; [4]): 45.5%
- Tumor weight (S180 cells; [4]): 0.55 ± 0.03 g
